For experiment [1], the target named is T1, mouse PD-1 (Sino Biological), coated on plates (mouse, UniProt Q02242 25-167).
T1 sequence (looked up): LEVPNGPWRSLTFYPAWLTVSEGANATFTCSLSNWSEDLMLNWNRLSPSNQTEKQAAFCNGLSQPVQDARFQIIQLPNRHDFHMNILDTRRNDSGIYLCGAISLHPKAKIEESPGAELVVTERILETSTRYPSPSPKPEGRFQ
The experiment in a line: ELISA, plates coated with mouse PD-1 at 1 µg/ml. On the procedure:
(§1) For ELISA, plates (Nunc) were coated with human, cynomolgus or mouse PD-1 (Sino Biological) at 1 μg/ml overnight at 4° C. After blocking and washing, antibodies were serially diluted in blocking buffer and added to the plates and incubated at room temperature for 1 h. The plates were then washed and subsequently incubated with secondary antibody goat anti human IgG HRP (Bethyl) for 1 h. After washing, TMB substrate was added and the reaction was stopped by 2 M HCl. The absorbance at 450 nm was read using a microplate reader (Molecular Device).

The target of experiment [2] is T2, mouse PD-1 on transfected 293F cells (mouse, UniProt Q02242 25-288).
T2 construct: whole, on cells; also called cell surface mouse PD-1
T2 sequence (looked up): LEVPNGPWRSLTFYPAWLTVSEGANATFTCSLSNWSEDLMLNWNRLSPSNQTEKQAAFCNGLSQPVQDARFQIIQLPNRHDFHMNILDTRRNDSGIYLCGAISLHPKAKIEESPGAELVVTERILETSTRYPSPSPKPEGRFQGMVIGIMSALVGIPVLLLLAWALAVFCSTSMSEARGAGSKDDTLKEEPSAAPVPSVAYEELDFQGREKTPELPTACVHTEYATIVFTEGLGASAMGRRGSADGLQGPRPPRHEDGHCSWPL
The experiment in a line: flow cytometry on 293F cells expressing mouse PD-1, quantitative beads. The method, then: (§2) Testing antibodies were 1:2 serially diluted in wash buffer (1×PBS/1% BSA) and incubated with cells at 4° C. for 1 h.

Experiment [3] has as its target T3, human CTLA-4 on a constructed cell line (human, UniProt P16410 36-223).
T3 construct: whole, on cells
As to the kind of experiment: FACS, CTLA-4.293F cells, one antibody concentration (not given). On the procedure: (§3) Constructed cell lines that respectively express human PD-1, CD28, CTLA-4 or ICOS were transferred in to 96-well U-bottom plates (BD) at a density of 2×10⁵ cells/well. Testing antibodies were diluted in wash buffer (1×PBS/1% BSA) and incubated with cells at 4° C. for 1 h. After washing, the secondary antibody goat anti-human IgG Fc FITC (Jackson ImmunoResearch Lab) was added and incubated at 4° C. in the dark for 1 h. The cells were then washed once and resuspended in 1×PBS/1% BSA, and analyzed by flow cytometery (BD) and FlowJo software.

Experiment [4] addresses human PD-1 antigen protein of the affinity-maturation screen (human, UniProt Q15116 25-167, limits assumed, biotinylated). As to the kind of experiment: capture ELISA, second-round affinity-maturation screen (scFv format likely); unit not given.
The target in experiment [5] is cynomolgus PD-1 antigen protein of the affinity-maturation screen (cynomolgus). Described as above.
Experiment [6] deals with T4, mouse PD-1 antigen protein of the affinity-maturation screen (mouse, UniProt Q02242 25-167, limits assumed, biotinylated).
T4 sequence (looked up): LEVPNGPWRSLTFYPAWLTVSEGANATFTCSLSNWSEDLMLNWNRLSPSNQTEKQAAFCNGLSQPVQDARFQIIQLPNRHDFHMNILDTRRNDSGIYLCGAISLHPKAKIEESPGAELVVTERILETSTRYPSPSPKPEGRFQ
Described as above.

Experiment [7] concerns the target T5, human PD-1 on transfected cells (human, UniProt Q15116 25-288).
T5 construct: also called CHO-S cells expressing human PD-1; human PD-1 transfected CHO-S cells
As to the kind of experiment: FACS competition on CHO-S cells expressing human PD-1 against biotinylated WBP305BMK1 at 1 µg/ml. The method, then: (§4) The cells were washed and the second antibody Streptavidin-PE were added and incubated for 30 min at 4° C. The cells were then washed once and resuspended in 1×PBS/1% BSA, and analyzed by flow cytometery (BD).

Experiment [8] concerns the target T5, human PD-1 on transfected cells. The experiment in a line: flow cytometry on CHO-S cells expressing human PD-1, quantitative beads. On the procedure: as §2
The target in experiment [9] is T6, human CD28 on a constructed cell line (human, UniProt P10747 19-220).
T6 construct: whole, on cells
As to the kind of experiment: FACS, CD28.CHO-K1 cells, one antibody concentration (not given). The method, then: as §3

In experiment [10] the target is T2, mouse PD-1 on transfected 293F cells. The experiment in a line: FACS blocking assay: mouse Fc fusion-mouse PD-L1 binding to mouse PD-1 transfected 293F cells.
For experiment [11], the target named is T5, human PD-1 on transfected cells. As to the kind of experiment: FACS competition on CHO-S cells expressing human PD-1 against biotinylated Keytruda at 1 µg/ml. The method, then: as §4
The target is the same in experiment [12]. As to the kind of experiment: FACS, human PD-1 transfected CHO-S cells.
Experiment [13] has as its target T2, mouse PD-1 on transfected 293F cells. The experiment in a line: FACS, mouse PD-1 transfected 293F cells.
The target in experiment [14] is cynomolgus PD-1 (Sino Biological), coated on plates (cynomolgus, UniProt B0LAJ3 25-170). The experiment in a line: ELISA, plates coated with cynomolgus PD-1 at 1 µg/ml. The method, then: as §1
Experiment [15] has as its target T7, human PD-1 (Sino Biological), coated on plates (human, UniProt Q15116 25-167).
T7 construct: whole entry named
The experiment in a line: ELISA, plates coated with human PD-1 at 1 µg/ml. On the procedure: as §1

Experiment [16] has as its target T5, human PD-1 on transfected cells. The experiment in a line: FACS blocking assay: mouse Fc fusion-human PD-L1 binding to human PD-1 transfected CHO-S cells.
Experiment [17] deals with T8, hPD-1.His (human, UniProt Q15116 25-170).
T8 construct: the SPR text says only human PD-1; also called human PD-1 (SPR analyte)
As to the kind of experiment: SPR (ProteOn XPR36), antibody captured on Protein A, PD-1.His as analyte, 1:1 fit. From the text: (§5) Antibodies were characterized for affinity and binding kinetics to PD-1 by SPR assay using ProteOn XPR36 (Bio-Rad). Protein A protein (Sigma) was immobilized to a GLM sensor chip (Bio-Rad) through amine coupling. Purified antibodies were flowed over the sensor chip and captured by the Protein A. The chip was rotated […] and washed with running buffer (1×PBS/0.01% Tween20, Bio-Rad) until the baseline was stable. Seven concentrations of human PD-1 and running buffer were flowed through the sensor chip at a flow rate of 30 μL/min for an association phase of 180 s, followed by 300s dissociation. After regeneration, seven concentration of mouse PD-1 and running buffer were flowed through the sensor chip at a flow rate of 30 μL/min for an association phase of 180 s, followed by 300 s dissociation. The chip was regenerated with pH 1.5 H₃PO₄ after each run. The association and dissociation curve was fit by 1:1 Langmuir binding model using ProteOn software.

The target in experiment [18] is T9, mPD-1.His (mouse, UniProt Q02242 25-167, limits assumed).
T9 construct: Soluble analyte, probably the extracellular domain; also called mouse PD-1 (SPR analyte)
T9 sequence (looked up): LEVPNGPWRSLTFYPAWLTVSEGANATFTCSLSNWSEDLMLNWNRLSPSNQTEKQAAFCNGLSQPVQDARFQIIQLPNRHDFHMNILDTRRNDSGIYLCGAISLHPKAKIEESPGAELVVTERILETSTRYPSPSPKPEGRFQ
The description is as above.
Excerpt: as §5

Chain of human PD-1 antigen protein of the affinity-maturation screen (Q15116 25-167 limits assumed): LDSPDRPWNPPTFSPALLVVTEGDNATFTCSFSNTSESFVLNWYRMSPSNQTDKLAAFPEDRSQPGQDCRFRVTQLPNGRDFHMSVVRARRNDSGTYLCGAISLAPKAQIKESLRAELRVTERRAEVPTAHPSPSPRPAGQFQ
T8 sequence (Q15116 25-170): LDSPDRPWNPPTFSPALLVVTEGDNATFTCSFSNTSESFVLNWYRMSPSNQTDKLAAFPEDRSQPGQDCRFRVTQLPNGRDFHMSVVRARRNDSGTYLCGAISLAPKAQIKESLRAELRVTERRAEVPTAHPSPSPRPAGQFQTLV
T5 sequence (Q15116 25-288 limits assumed): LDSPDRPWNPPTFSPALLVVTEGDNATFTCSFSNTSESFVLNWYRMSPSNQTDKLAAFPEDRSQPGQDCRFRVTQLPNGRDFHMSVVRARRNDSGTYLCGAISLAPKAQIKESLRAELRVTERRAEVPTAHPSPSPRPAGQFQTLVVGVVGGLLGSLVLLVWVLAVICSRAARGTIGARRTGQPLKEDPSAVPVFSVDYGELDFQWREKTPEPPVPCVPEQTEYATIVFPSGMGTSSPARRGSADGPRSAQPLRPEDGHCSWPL
Chain of cynomolgus PD-1 (Sino Biological), coated on plates (B0LAJ3 entry or part of it limits assumed): as the sequence (Q15116 25-170) above, with D2E, P10A, V19L, T35A, Q75R, T144A counted along it
T7 sequence (Q15116 25-167 limits assumed): as the sequence (Q15116 25-167 limits assumed) above
T3 sequence (P16410 36-223): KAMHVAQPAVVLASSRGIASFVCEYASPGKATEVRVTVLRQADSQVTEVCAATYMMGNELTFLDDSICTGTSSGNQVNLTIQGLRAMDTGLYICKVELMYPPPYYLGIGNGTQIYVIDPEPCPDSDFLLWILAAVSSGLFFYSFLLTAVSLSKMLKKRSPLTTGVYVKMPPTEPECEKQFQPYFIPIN

B1: 2E5 (antibody, human IgG4, V domains shown)
VH: QVQLVQSGAEVKKPGSSVKVSCKASGFTFTTYYISWVRQAPGQGLEYLGYINMGSGGTNYNEKFKGRVTITADKSTSTAYMELSSLRSEDTAVYYCAIIGYFDYWGQGTMVTVSS
VL: DVVMTQSPLSLPVTLGQPASISCRSSQSLLDSDGGTYLYWFQQRPGQSPRRLIYLVSTLGSGVPDRFSGSGSGTDFTLKISRVEAEDVGVYYCMQLTHWPYTFGQGTKLEIK
As for B1, the EC50 in experiment [1] came out at 0.37 nM; in experiment [12], 2.2 nM; in [13], 12.9 nM; in [14] it was 0.25 nM; in experiment [15] it was 0.18 nM. Further, the Kd in experiment [2] was found to be 29 nM; in [8], 0.23 nM; in [17], 6.13 nM; in experiment [18] it was 3.99 nM. For the same molecule, the binding result in experiment [3] and in experiment [9] was “no binding” each time. Further, the Bmax was found to be 3.28 in experiment [4], 1.72 in experiment [5] and 0.47 in experiment [6]. The IC50 was found to be 5.84 nM in [7], 13 nM in experiment [10], 9.52 nM in [11] and 2.14 nM in experiment [16]. Further, the koff was found to be 0.00366 s⁻¹ in [17] and 0.00129 s⁻¹ in experiment [18]. The values for the kon in experiment [17] and in [18] were 597000 M⁻¹ s⁻¹ and 323000 M⁻¹ s⁻¹, respectively.

B2: 2B1 (antibody, V domains shown)
VH: QVQLVQSGAEVKKPGSSVKVSCKASGFTFTTYYISWVRQAPGQGLEYLGYINMGSGGTNYNEKFKGRVTITADKSTSTAYMELSSLRSEDTAVYYCAIIGYFDYWGQGTMVTVSS
VL: DVVMTQSPLSLPVTLGQPASISCRSSQSLLDSDGNTYLYWFQQRPGQSPRRLIYLVSTLGSGVPDRFSGSGSGTDFTLKISRVEAEDVGVYYCMQLTHWPYTFGQGTKLEIK
As to B2, the Bmax in experiment [4] is 3.02; in experiment [5], 1.21; in experiment [6], 0.339.

B3: A6W (antibody, V domains shown)
VH: QVQLVQSGAEVKKPGSSVKVSCKASGFTFTTYYISWVRQAPGQGLEYLGYINMGSGGTNYNEKFKGRVTITADKSTSTAYMELSSLRSEDTAVYYCAILGYFDYWGQGTMVTVSS
VL: DVVMTQSPLSLPVTLGQPASISCRSSQSLLDSDGNTYLYWFQQRPGQSPRRLIYLVSTLGSGVPDRFSGSGSGTDFTLKISRVEAEDVGVYYCMQLTHWPYTFGQGTKLEIK
Regarding B3, the Bmax turned out to be 2.57 in experiment [4], 0.0787 in experiment [5] and 0.174 in [6].

B4: L1I (antibody, V domains shown)
VH: QVQLVQSGAEVKKPGSSVKVSCKASGFTFTTYYISWVRQAPGQGLEYLGYINMGSGGTNYNEKFKGRVTITADKSTSTAYMELSSLRSEDTAVYYCAIIGYFDYWGQGTMVTVSS
VL: DVVMTQSPLSLPVTLGQPASISCRSSQSLLDSDGNTYLYWFQQRPGQSPRRLIYLVSTLGSGVPDRFSGSGSGTDFTLKISRVEAEDVGVYYCMQLTHAPYTFGQGTKLEIK
notes: also called L11
Regarding B4, the results for the Bmax in experiment [4] and in experiment [5] were 1.05 and 0.0517, respectively.

B5: 1G10 (antibody, V domains shown)
VH: QVQLVQSGAEVKKPGSSVKVSCKASGFTFTTYYISWVRQAPGQGLEYLGYINMGSGGTNYNEKFKGRVTITADKSTSTAYMELSSLRSEDTAVYYCAILGYFDYWGQGTMVTVSS
VL: DVVMTQSPLSLPVTLGQPASISCRSSQSLLDSDGATYLYWFQQRPGQSPRRLIYLVSTLGSGVPDRFSGSGSGTDFTLKISRVEAEDVGVYYCMQLTHWPYTFGQGTKLEIK
B5: the Bmax amounted to 2.6 in [4], 1.08 in [5] and 0.3 in experiment [6].

B6: 8C10 (antibody, V domains shown)
VH: QVQLVQSGAEVKKPGSSVKVSCKASGFTFTTYYISWVRQAPGQGLEYLGYINMGSGGTNYNEKFKGRVTITADKSTSTAYMELSSLRSEDTAVYYCAIIGYFDYWGQGTMVTVSS
VL: DVVMTQSPLSLPVTLGQPASISCRSSQSLLDSDGQTYLYWFQQRPGQSPRRLIYLVSTLGSGVPDRFSGSGSGTDFTLKISRVEAEDVGVYYCMQLTHENYTFGQGTKLEIK
Regarding B6, the Bmax was 2.31 in experiment [4], 1.11 in [5] and 0.437 in [6].

B7: 5C4 (antibody, V domains shown)
VH: QVQLVQSGAEVKKPGSSVKVSCKASGFTFTTYYISWVRQAPGQGLEYLGYINMGSGGTNYNEKFKGRVTITADKSTSTAYMELSSLRSEDTAVYYCAILGYFDYWGQGTMVTVSS
VL: DVVMTQSPLSLPVTLGQPASISCRSSQSLLDSDGQTYLYWFQQRPGQSPRRLIYLVSTLGSGVPDRFSGSGSGTDFTLKISRVEAEDVGVYYCMQLTHEPYTFGQGTKLEIK
For B7, the values for the Bmax in experiment [4], in experiment [5] and in experiment [6] were 2.65, 0.258 and 0.164, respectively.
